The target in test [1] is T1, EBOV GP[change] (Ebola virus, UniProt Q05320).
The target of test [2] is MARV GP[change] (Marburg virus, UniProt P35253).
Test [3] deals with T1, EBOV GP[change]. The source holds these as a separate data set.

Data on two molecules can be found in patent US20170158753A1 (INTEGRATED BIOTHERAPEUTICS, published 2017).

B1: m5E4 (antibody, V domains shown)
VH: EVQLQESGGDLVKPGGSLKLSCAASGFTFSSYTMSWVRQTPERRLEWVATITSGGTYTYYPDSVKGRFTISRDNAKNTLYLQMTSLKSEDTAMYYCTREDGYYFSYWGQGTLVTVSA
VL: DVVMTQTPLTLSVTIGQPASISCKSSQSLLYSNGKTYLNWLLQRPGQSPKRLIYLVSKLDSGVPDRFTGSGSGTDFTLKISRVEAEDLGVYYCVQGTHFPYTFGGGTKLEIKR
The Kd is the constant that tells how readily two partners part at equilibrium. The low end stands for a tighter complex, the high end for a looser complex. As to B1, the equilibrium dissociation constant (Kd) in test [1] amounted to 12 nM; in test [2] it was 30 nM.

B2: m2E4 (antibody, V domains shown)
VH: EVQLQESGPELVKPGASVKISCKASGYSFTGYYMNWVKQSPEKSLEWIGEINPSTGGTTYNQKFKAKATLTVDKSSSTAYMQLKSLTSEDSAVYYCVRYSHYYGSGSWYFDVWGTGTTVTVSS
VL: DIQMTQSPASLSASVGETVTITCRASENIYSNLAWYQQKQGKSPQLLVNAATNLADGVPSRFSGSGSGTQFSLKINSLQPEDFGSYYCQHFYVTPYTFGSGTKLEIKR
Broadly, the EC50 is the concentration at which the effect is half-maximal. High values mean a less potent agent, low ones a more potent agent. For the molecule B2, the EC50 in test [3] is 1.27 µg/mL.
